Measured values as given in patent publication US20040208873A1.

Biological target: recombinant human IL-8, 72 aa form (monocyte derived) (human) (UniProt P10145)
Assay: cell-based or functional assay

recombinant human IL-8, 72 aa form (monocyte derived) (human), sequence (P10145 28-99 limits assumed): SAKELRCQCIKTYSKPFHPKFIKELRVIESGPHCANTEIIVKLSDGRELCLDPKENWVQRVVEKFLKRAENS

irrelevant human isotype control antibody (Example 8)
expression level of CD11b on IL-8 stimulated PMN (MFI, flow cytometry): 2400 MFI
expression of CD62L on IL-8 stimulated PMN (MFI, flow cytometry): 150 MFI
